Laboratory results: publication PMC11405016

Target: Prominin 1 (Prom1) W795R, human S1 isoform, C-terminally Strep-tagged (human)
Experiment: co-IP; EVs from co-transfected Expi293 cells, purified and solubilised with 1% DDM (25 mM HEPES-NaOH pH 7.8, 150 mM NaCl, 5 mM CaCl2); Prom1-Strep captured on StrepTactinXT 4Flow resin, 1 hr at 4°C; co-purified mNeonGreen or mScarlet fluorescence on the beads measured by montaged epifluorescence imaging, normalised to mTagBFP2-Strep on the resin

- co-purified mScarlet fluorescence relative to WT Prom1 (% of WT Prom1): 60
Substance: Prominin 1 (Prom1) W795R, human S1 isoform, C-terminally Strep-tagged (natural protein)
